Source: article PMC5760745, “Nuclear, Cytosolic, and Surface-Localized Poly(A)-Binding Proteins of Plasmodium yoelii”

Key:
PyPABP1 [1] = target: T1, PyPABP1 (Plasmodium yoelii 17XNL, UniProt V7PUC0 1-841); test: ITC; 5 mM Mg2+; second of two protein preparations; EMSA/FP: 10 mM Tris-Cl pH 7.5, 5 mM MgCl2, 55 mM KCl, 2 ug tRNA, 1 mM DTT, 0.5 U/ul SUPERase-In, 2.5% glycerol, RT 20 min; ITC: 10 mM HEPES pH 7.5, 100 mM KCl; settings: protein: recombinant; tags: N-terminal GST (thrombin-cleavable), C-terminal 6xHis (TEV-cleavable); single strand
T1 sequence: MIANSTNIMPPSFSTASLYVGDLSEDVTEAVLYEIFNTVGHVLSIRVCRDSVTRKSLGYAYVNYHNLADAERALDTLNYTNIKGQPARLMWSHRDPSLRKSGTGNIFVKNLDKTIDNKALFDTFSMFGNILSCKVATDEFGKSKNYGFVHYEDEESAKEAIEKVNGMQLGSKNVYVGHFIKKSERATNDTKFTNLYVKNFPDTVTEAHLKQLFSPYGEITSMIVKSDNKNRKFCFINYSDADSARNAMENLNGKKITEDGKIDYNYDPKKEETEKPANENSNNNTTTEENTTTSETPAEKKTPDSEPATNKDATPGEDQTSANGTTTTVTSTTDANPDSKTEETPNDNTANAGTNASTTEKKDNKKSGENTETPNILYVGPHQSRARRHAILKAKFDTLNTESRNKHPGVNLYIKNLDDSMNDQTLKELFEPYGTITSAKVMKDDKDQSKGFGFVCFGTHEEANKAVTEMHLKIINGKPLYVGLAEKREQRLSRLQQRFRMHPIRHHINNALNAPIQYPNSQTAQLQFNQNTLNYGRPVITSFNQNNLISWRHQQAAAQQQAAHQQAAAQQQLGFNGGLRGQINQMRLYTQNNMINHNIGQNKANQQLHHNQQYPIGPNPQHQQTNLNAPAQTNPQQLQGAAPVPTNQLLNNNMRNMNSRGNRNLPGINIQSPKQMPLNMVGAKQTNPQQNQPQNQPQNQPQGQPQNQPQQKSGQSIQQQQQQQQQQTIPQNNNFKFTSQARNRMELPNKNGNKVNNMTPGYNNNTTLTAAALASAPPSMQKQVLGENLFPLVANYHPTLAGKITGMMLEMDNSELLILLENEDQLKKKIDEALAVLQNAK

PyPABP1 [2] = target: T1, PyPABP1; test: ITC; 5 mM Mg2+; first of two protein preparations; EMSA/FP: 10 mM Tris-Cl pH 7.5, 5 mM MgCl2, 55 mM KCl, 2 ug tRNA, 1 mM DTT, 0.5 U/ul SUPERase-In, 2.5% glycerol, RT 20 min; ITC: 10 mM HEPES pH 7.5, 100 mM KCl; settings: protein: recombinant; tags: N-terminal GST (thrombin-cleavable), C-terminal 6xHis (TEV-cleavable); single strand
PyPABP1 [3] = target: T1, PyPABP1; test: EMSA; apparent Kd; excess tRNA, 5 mM Mg2+; EMSA/FP: 10 mM Tris-Cl pH 7.5, 5 mM MgCl2, 55 mM KCl, 2 ug tRNA, 1 mM DTT, 0.5 U/ul SUPERase-In, 2.5% glycerol, RT 20 min; ITC: 10 mM HEPES pH 7.5, 100 mM KCl; settings: protein: recombinant; tags: N-terminal GST (thrombin-cleavable), C-terminal 6xHis (TEV-cleavable); single strand
PyPABP2 [4] = target: T2, PyPABP2 (Plasmodium yoelii, UniProt UPI0004EF7F20 1-199); test: as above; settings: protein: recombinant; tags: N-terminal GST (purified via GST); vector pSL0220 also encodes C-terminal 6xHis; single strand
T2 sequence: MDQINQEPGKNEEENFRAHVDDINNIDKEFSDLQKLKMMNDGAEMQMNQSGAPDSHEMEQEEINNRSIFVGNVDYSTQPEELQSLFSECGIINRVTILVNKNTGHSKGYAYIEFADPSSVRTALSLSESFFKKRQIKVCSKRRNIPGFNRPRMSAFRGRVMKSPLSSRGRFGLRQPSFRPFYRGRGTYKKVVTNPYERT

PyPABP1 [5] = target: T1, PyPABP1; test: fluorescence polarization; apparent Kd; excess tRNA, 5 mM Mg2+; EMSA/FP: 10 mM Tris-Cl pH 7.5, 5 mM MgCl2, 55 mM KCl, 2 ug tRNA, 1 mM DTT, 0.5 U/ul SUPERase-In, 2.5% glycerol, RT 20 min; ITC: 10 mM HEPES pH 7.5, 100 mM KCl; settings: protein: recombinant; tags: N-terminal GST (thrombin-cleavable), C-terminal 6xHis (TEV-cleavable); single strand
PyPABP2 [6] = target: T2, PyPABP2; test: as above; settings: protein: recombinant; tags: N-terminal GST (purified via GST); vector pSL0220 also encodes C-terminal 6xHis; single strand

Which results are given for AAAAAAAAAAAAAAAAAAAAAAAAA (ssRNA) [poly(A) 25-mer]?
Kd (PyPABP1 [1]): 48 nM; Kd (PyPABP1 [2]): 33 nM

Which results are given for AAAAAAAAAAAAAAAAAAAAAAAAA (ssRNA) [biotin-poly(A) 25-mer]?
Kd (PyPABP1 [3]): 185 nM; Kd (PyPABP2 [4]): 108 nM

How did the Kd (PyPABP1 [5]) turn out when AAAAAAAAAAAAAAAAAAAAAAAAA (ssRNA) [fluorescein-poly(A) 25-mer] was run?
Its Kd is 8 nM.

What about the Kd (PyPABP2 [6]) of the same binder?
Its Kd is 104 nM.
